Data from patent US20230416362A1.

How the values were obtained:
[1] = target: mTIGIT (ELISA of Table 7) (mouse) (UniProt P86176); assay: ELISA binding
[2] = target: mTIGIT (ELISA of Table 7) (mouse) (UniProt P86176); assay: mTIGIT/mCD155 competition ELISA; competitor mCD155

mTIGIT (ELISA of Table 7) (mouse), sequence (P86176 29-145 limits assumed): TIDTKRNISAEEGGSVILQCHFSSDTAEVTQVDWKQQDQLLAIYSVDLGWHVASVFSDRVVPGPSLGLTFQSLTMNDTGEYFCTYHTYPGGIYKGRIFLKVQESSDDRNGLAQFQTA

In the case of 1G9 (Bio X Cell, #BE0150) (antibody), the EC50 [1] is reported as 0.3 nM and the IC50 [2] is reported as 1.5 nM.
